Molecular target: T1, polypeptide S29 (HBcAg-aa141-aa154) (hepatitis B virus)
T1 peptide: STLPETTVVRRRGR
Assay: indirect ELISA on coated peptide, antibody 1 ug/mL; positive if measured/background > 5

B1: 2A7 monoclonal antibody (antibody, V domains shown)
VH: QVQLQQPGAELVKPGASVKLSCKASGYTFTRYWMHWVMQRPGQDLEWIGEINPINGRTNYNEKFRRKATLTVDKSSSTVYIQFSSLTSEDSAVYFCTREGYRNDYYYAMDFWGRGTSVTVSS
VL: DIQMTQTSSSLSASPGDRVTISCRASQGINNYLNWYKQKTDGTFKLLIYYTSYLHSGVPSRFSGRGSGTDYSLTISNLEPEDVATYYCQQYGKLPWTFGGGTKLEIK
notes: also called HBc-2A7; 2A7-21
B1: binds.
